This data set can be described thus: soluble on expression in E. coli; label from the status in PepcDB or PDB records.
With “MNKQLTTIGIMASLFATSSFATDWTQIEKEAQGQTVYFHAWGGSQEINHYLQWANKELQSKYQVTLKHVKVSDISETIPRLIAEKAADKNTNGSVDMVWINGENFKSMKDNQLLFGPFTENLPSWKYVDKMLPIDVDFSEPTDGLEAPWGVGQLVFIHDSENLTNPPHSFAEMLSYAQKKPNSLSYPRPPEFHGTSVLKSMLIELTNNNPALQKPVSESDFNAVTAPLWDYLEKFHKVAWRGGKQFPAGTSETIQLLDDGQLDLAVTFNPNAVYSAQANGNLANTTKAYAMDSGALSNIHFLAIPWNAKASAGAQVAINFLLSPEAQSRKGDLNVWGDPSVLSSKYLTGSAKNTQQFKSVSEPHPSWQAAIEKEWLKRFGS”, the “soluble on expression in E. coli” value is reported as “soluble”.
Regarding “MNKSRVVVGMSGGVDSSVAALLLKQQGYDVTGLFMKNWEEDDTDEYCSSRQDFLDAASVADILDIPLEVVNFSTEYRERVFNLFLKEYQAGRTPNPDVLCNSEIKFRAFLDHALNLGADWIATGHYAQVHETDGLFQLLKGEDGNKDQSYFLYRLNQQQLSHTIFPIGHLYKREVRKIAREHRLPNSTKKDSTGICFIGERPFREFLNRYLPANPGEIHTLDDQVVGEHLGVMYYTIGQRQGLGIGGTRQGSEQPWFVSGKDIKKNVLYVVQGHDHPALLRSSLTAADLSWISGTPPHQNWVYAAKIRYRQTDAPCAITHFEHDSCQIGFAAPQWGITPGQSVVVYESKVCLGGGVIIGSNDLEHHHHHH”, the “soluble on expression in E. coli” value is listed as “not soluble”.
The value for “MNLASQISQAKTGNATMEWAKNYVSKLNDGQLALLQKMYADHQAKLKASEDEKKKKEMEELKMKAQQQAILDSLTQQIPIMVDVLRSSTSPDSQPSSSSSVMSSTDEDQITVKDVLIGKINKAQRQSSPNSSKPYTPRGIRERVLFDEHLYVFDKCSYDSKKRFFRCERKNTCPARIHTPFDAERVIHKVQVHNHPPPTTFDLAHYNIDYGKVKSGHILSLNGPQQTKNLLPPSLLTPKSDLEDETLSTKTEQKNASTMNILLSMTNNCDGRKPITLRLPDLFNKISEMEIHDMEMTLTKFLLENRELRTDLISRNGDLPVFFPNAHNDELVLFVADQHENDSVFQMIRVSERNEKSIRQAIQEHLQKVSNRSLMMNISSKINVPLSQQMIDQWRTEEFIRLDSSKPNFWKIHHVSKLQD” was “not soluble”; that for “MNLDDIINSMTPEVYQRLSTAVELGKWPDGVALTEEQKENCLQLVMLWQARHNTEAQHMTIDTNGQMVMKSKQQLKEDFGISAKPIAMFK” was “not soluble”.
Take “MNLPSKFHQVTITDPIAGAGITFTIPTRYVNLKFLNVGAQGIVVMADDLVTTQRVAIKKMQQPFLLTMSARRAYREFILLTTLKHPNIIRLLNAFTPDTSLSSFQEVYLVMEFMTHNLHEVIHRLRLDHETLSFLVYQSLCAIKHLHNLGFIHRDLKPSNIVVNERCVLKVLDFGLARRRNVDMRMSDYVGTRYYRAPEVILGLNYSEKVDIWSVGCILAEMINHTVLFPGKDIRDQWTQISSVLRTPDDHFINQLEPIGAVYVRSLPQHLARAFNEIVPDSNFLPETENPKDHLTLHMARDLLFNMLKINPEERYSVEDALNHPYTMVQGR”: the “soluble on expression in E. coli” value is “not soluble”.
In the case of “MNLRSRLVNATERAVLFQIFKDVQNDPEKYDNAVEAICESIDYFGKFLTDSEYLTQIKPILDTQCPTKSIICFSKCLTKVSTDINTTTFRDVITMLDWLKYVVEKSLTSAICSSLKVKETDVSAVQLYREFASACSNIPEKVSNCCAKALSGEHVKYINTVKWIFKMNLVQGIQKAMLLAHDDIVTAAPFTSFYGSGGPYMKTVAEIISSGRNIDITNKDGLLVQMIEWIGSLNNFDSQWRRMMFLIFQEPTYQGIQVHESLLTTLFLISKSDQILKRCIEATDLTGTLKRVVMVKLPFQRVLKRKTIEILINFVYRTKEQFAIQLLETSVKIWSDLNYAKSAPESQERHIVRMILYLVHLFRTCSSIDWESLFLNSMDGVHCRMSMLPMYVQSGIFVNQALCKQATKHRSKTHGSDEQPPETLEENKFVSSEVGKIWFEEMTSILEHGFNSSTVKDSERVRETANEITKDDSGEEFEETNAQRLQNNKDSAAITSKNNLRLDSDDDEDFPDYQVNESEKIFKNLEIGEEPKNKVTPPAYIADAFEMLLEKEKYEVFEAAFFNITNLINRRPIGFPQIAEKLFIRILHLQNNFGTPKFKETVDEIAVACITQRPEIVPSVVRLIIAPGQGFSIKQRLLHYIHNAADGMGALDKKLEECVMAQQLRIGGPTLSIILHRTINTDYDDEDEDPHRLLVPEWRRMVDARIAANTRRIGTTREPPRAGVVNRLAQAAKYMFYPLLVLPRGENASLLGKDSDLLASLIMVASMVYVRCGVCPQIHRMSSELISYATPHRFSENAKLRTACIIAHLNVTTLLPGDLMDELFDVPALIGWFDWANSVLVNASSSQLEKDMTRQFGHSVTKHLQRYHPAVLQHQDV” it was “not soluble”; in that of “MNMAEVSKNQVEKALETVIYPGSGKNIVALGMVSEIFIADAKAYFSITVPADKASEMEPLRLAAERAAKSVEGIAGAVVALTADRKPGQQQPAPAGPTPARPAAATGRPAAAPGRPTPQPGSSKVGVPGVRAIIAVASGKGGVGKSTTAVNLALGLQALGLKVGMLDADIYGPSLPRLLKISGRPKQQEDRIILPMENYGLKVMSMGFLVDEEAAMIWRGPMVQSALMQMLREVAWGELDVLVLDMPPGTGDAQLTIAQQVPLAGAVIVSTPQDLALLDARKGITMFRKVEVPLLGVIENMSYFIAPDTGARYDIFGHGGAKAEAERIGVPFLGEVPLTISIREMSDAGTPVVVAEPDGPQAAIYREIAEKVWARMGADERKAAPKIVFELEHHHHHH”, “not soluble”; in that of “MNMKATALTATTVAIASLLPSMGETNVQKANAEQLSNIKTGYVKVDQVALHTEDNVKSTSIDTIRFNTKVNIIETTNGWYKVSVHNKVGYVQKDAILLKNKLQSNDQYIVNANALNVRSEPNLESSILDVLPNGKFITVQEDQGEWYKISHNGQTGYVQKAFISNGSQPLVKGITVQNNTKYTVATPNLNVRSTASTSSALLGSLQNGTQVQVVETVGTWYKIRFGTGYGYVAKHYVVQNQPQAKTDQPSSIPAAFKFPAQGRISSTFDIRWEQMHYGIDIAAPGNVSIQAAAAGKVVKSYYSASYGNVVFIAHQINGKLYTTVYAHMKDRTVQAGDQVQTGQLIGHMGNTGHSYGQHLHCELHNGEWNFEKTDAVNPLPYLVRLEHHHHHH”, “soluble”.
As to “MNMPHKFNQYNKSIPVNKHVIELLENDPSLLPSDIAKQLSISEVEVVKSLPKEMVTMVSGLKTQEILEGLVGFGDVTTIVHSFGSIFEVKAPFPKGKIAHGYYNLMGREGQLHGHLKLDLIQDIALISKPFRGTESHYFGFFNHDGHSVFKIYLGRDKKRQLIPEQVEAFNVLKQEYKLEHHHHHH”, the “soluble on expression in E. coli” value was “soluble”.
Consider “MNMQKLRIELGEETNDELYDLLLLADPSKDIVDEYLERGECYTAWAGDELAGVYVLLKTRPQTVEIVNIAVKESLQKKGFGKQLVLDAIEKAKKLGADTIEIGTGNSSIHQLSLYQKCGFRIQAIDHDFFLRHYDEDIFENGIQCRDMVRLYLDLLEHHHHHH”, for which the “soluble on expression in E. coli” value was “soluble”.
Consider “MNMTIFIVFVICLSCVSLSLGTETCPPLTTIKPPDDIQKSLFYPSNWNDDLPTPNFAAGQKCSFKVIGPVVPQIRTVHAKSPPLALNAMSSTNPIVVKSDTHVSFLPIPQNYNYLDPILRSVQVYDGPTIDSTHLGTLYQAIASNNSLVSSGKYLTFYSLSWYYSVRNIVILQDYSDIQNYASYQAFTCHNSCGVSLDASKGTAAVLLFNSLSFVNQLSMSDNNSTLSVYTNSISDDNKLSDYSYSNSQTNIPQKFVGNYTIFVLDKGQANLSLKTYTPNNAWWSYVFYGQRGFFASPNFGTSDSDQNLCDAVSINGKHPAKITYTVDRSAIVGPAVLTVSIGGNITIYDVTNLPGPDPISAIGMSIAVNYESNGVISTGAFVSFEFQKSATSNGILFTIVLTICMAIFF”, for which the “soluble on expression in E. coli” value was “not soluble”.
On to “MNNDLAPHLDIALRHSPPGLAATPIPRVDICVGQGFTEKAPCLYRSMICFILQGSKRVAINDNLLSYDSEHYLISALDLPLIGQILDAEDGQPYVAVSLVLDPALLAVLAASMPAVREREQKGIGITINPMSAPLRDTLLRLLSLLDTPDDIPILAPMVERELLYRLLQGPQGRLL”, for which the “soluble on expression in E. coli” value is on record as “not soluble”.
In the case of “MNNENKTHIADSVLDVIVVGGGINGAGIAADAAGRGLTVGLYEASDFASATSSASSKLIHGGLRYLEHYEFRLVSEALAEREVLLAKAPHIAKPMRFRLPHRPFLRPAWMIRAGLFLYDNLGKRTTLPASHSVDLAASGLLKSEITKGFEYSDCWVDDARLVILNAMAAEKNGAEVKNYCRVEKAIRVDNIWHVTVFDVQANVRFERKARALVNAAGPWVKQFFDDSLEDESPRNIRLVKGSHIVVPKIHNEEQAYILQNKDNRIVFVIPYMEDFSIIGTTDVEYKGDPRKVEISEEEVNYLIDVVNQHFVDQIKRDDVVWTYSGVRPLCDDESDSPQAITRDYTLELEQELDQAPLLSIFGGKLTTYRKLGETAMKMLNPYFAKMGTPWTRNVALPGGDFDYPRHQLVDNICCKHPWLAKETVTRYVNQFGTLTWTLLEGIECQSDMGELFAQGVYQAEIDYLIKHEFAKNAEDVLWRRTKLGLYLTEEEEKQIALYIESYLSHRHKVKLQNVILEHHHHHH” it was “soluble”.
For the sequence “MNNGYSPTSSNQQNVSVEHDIIMRGRRIIDITGVKQVESFDSEEFLLETVMGFLTIRGQNLQMKNLDVEKGIVSIKGKVNEMLYIDENQGEKTKGFFSKLFKLEHHHHHH”, the “soluble on expression in E. coli” value was “not soluble”.
In the case of “MNNIENVDQKLIENLANLMSSEVRAKIYIYLRKYNKSTVDEIAGGTGIYPSTVRESILDMYNTGYVSREKMDKEGLGKKPYLYTAAAPSEIVRKISKNIQEKLNDLIMVDRRIESKELKIPFVPVKIVVDEKYRD”, the “soluble on expression in E. coli” value is recorded as “not soluble”.
In the case of “MNNKYQMGVSTNLKYKGISLGIDFDIRQGGVMYSRTKDINYFTGNAIQTAYNDRNPLIVPNSVNKIVNGENVTYVENTTPITSSNIYKYWGDGGSDMGSCFLVDKSYVKLRSVVLGWDLPKRWLAKTPFQAVKVSAYGNNLFVWTPSSNTFIDPEMTSFGNDLEGNYGEYTANPSSRRFGFNLMVKF” it was “not soluble”; in that of “MNNLPLLNDLRVFMLVARRAGFAAAAEELGVSPAFVSKRVSLLEQTLNVMLLHRTTRRVTITEEGERIYEWAQRILQDVDEMMDELSDVRQVPQGTLRIISSFGFGRRVVAPALSALALQYPQLELRFDVQDRLVDLVNEGVDLDIRVGDDIAPNLIARQLAANHRVLCASPQFLARHAPPKQLSDLAALPCLVIKERDHPFGVWQLHSKEGQHAIKVTGPLSSNHGEIVHQWCLDGQGIALRSWWDVRENIASGHLVQVLPDYWQPANVWAVYVSRLATSAKIRTTVEFLRHYFQLHYPQHEPTASAVGRGD”, “not soluble”.
For “MNNNLLIIAGPTAVGKSDLSVDLAKKLNGEIISVDSMQIYKYMDIGSAKISKEEMGGIPHYLIDFVDPSKEFSVAEFKDLTTEKIKDIQSRGKLPILVGGTGLYINSIICNMNFAESDKDEEYREELEKIANEHGNEYLHEMLKDIDLESYNSIHFNNRKRVIRALETYKLTGKPFSSFKAKNSIYETPYNIYYYVLNMDRAKLYDRINKRVDIMFEKGLLEEVKNLKAMGLTDDMQSMKGIGYKEVLYYLDGKISLEQCIEMIKQGSRNYAKRQLTWFRKDPRAIFIDKDTFASEEDISSKIINDIINSMAGDPNSLEHHHHHH”, the “soluble on expression in E. coli” value was “not soluble”.
As to “MNNSSFFGNRLKEERKKLKMTQAEIAEKCGVSGRMWGDYERGISQPKAELFFQFEKVGIDVQYVMHGRRGETAVMPSETLNAEEQELLVLFREAAAADREMILMVARRAEKKAQTALGKVSNG”, the “soluble on expression in E. coli” value was “not soluble”.
